Among the data in patent US20210363269A1 (ALX ONCOLOGY, published 2021) are koff values, retold here.

Holding throughout (test): SPR, Langmuir fit
On the technique in general: In SPR one partner is held on a chip, and binding of the other changes the refractive index at the surface.

For test [1], the target named is T1, C57BL/6 mouse SIRP-α D1 domain (mouse (C57BL/6 strain), UniProt P97797 32-148).
T1 sequence: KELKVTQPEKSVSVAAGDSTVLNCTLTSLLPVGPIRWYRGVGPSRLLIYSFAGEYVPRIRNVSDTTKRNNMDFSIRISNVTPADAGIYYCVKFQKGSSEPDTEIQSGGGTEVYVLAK
Put shortly: (§1)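 Dissociation rate constants (koff) were measured on a ProteOn XPR36 instrument by Langmuir model fitting. Antibody clones in scFv-Fc format were captured from pre-filtered culture media onto a GLC chip with about 4000 RU of amine-coupled anti-human IgG Fc. SIRP analytes ran in PBS pH 7.4 with 0.01% Tween-20 at 25° C, and the model used was 1:1, applied to data double-referenced against interspot and buffer-blank responses.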

Test [2] concerns the target T2, high affinity SIRP-α D1 variant CV1-3.
T2 chain: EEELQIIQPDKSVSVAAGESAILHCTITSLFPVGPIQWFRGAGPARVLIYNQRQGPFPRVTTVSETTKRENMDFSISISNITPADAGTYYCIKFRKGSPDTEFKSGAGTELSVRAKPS
Put shortly:
as §1

Test [3] addresses T3, cynomolgus SIRP-α D1 domain (cyno2) (cynomolgus monkey, UniProt Q5TFQ8 30-148 (human entry), limits assumed).
T3 chain: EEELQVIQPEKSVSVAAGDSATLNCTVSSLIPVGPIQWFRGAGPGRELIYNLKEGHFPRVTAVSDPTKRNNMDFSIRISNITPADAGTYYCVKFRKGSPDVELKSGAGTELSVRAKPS
The gist of the method:
as §1

Test [4] deals with T4, human SIRPβ isoform 1 (human, UniProt O00241 30-148).
T4 construct: also called SIRPb; sirpb1
Put shortly:
as §1

For test [5], the target named is T5, mouse 129 SIRP-α D1 domain (mouse (129 strain), UniProt P97797 32-150).
T5 construct: also called m129
T5 chain: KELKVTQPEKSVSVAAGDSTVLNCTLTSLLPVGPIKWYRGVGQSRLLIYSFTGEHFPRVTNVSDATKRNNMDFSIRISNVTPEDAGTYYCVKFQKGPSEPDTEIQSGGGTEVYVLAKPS
The gist of the method: as §1

Test [6] addresses T6, cynomolgus SIRP-α D1 domain (cyno1) (cynomolgus monkey, UniProt Q5TFQ8 30-148 (human entry), limits assumed).
T6 chain: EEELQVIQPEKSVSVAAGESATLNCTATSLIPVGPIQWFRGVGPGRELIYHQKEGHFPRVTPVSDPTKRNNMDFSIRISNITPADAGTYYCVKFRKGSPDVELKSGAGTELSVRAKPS
Put shortly: as §1

For test [7], the target named is T7, human SIRP-α v2 D1 domain (human).
T7 construct: also called human v2
The gist of the method: as §1

Test [8] concerns the target T8, NOD mouse SIRP-α D1 domain (mouse (NOD strain)).
T8 chain: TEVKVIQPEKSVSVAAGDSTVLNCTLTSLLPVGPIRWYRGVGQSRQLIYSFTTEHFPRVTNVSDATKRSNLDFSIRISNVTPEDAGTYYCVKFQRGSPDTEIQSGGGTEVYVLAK
Put shortly: as §1

For test [9], the target named is T9, human SIRP-α v1 D1 domain (human, UniProt P78324 31-149).
T9 construct: also called human v1
The gist of the method: as §1

In test [10] the target is T10, human SIRPγ isoform 1 (human, UniProt Q9P1W8 29-147).
T10 construct: also called SIRPg; sirpg
Put shortly: as §1

T9 sequence (P78324 31-149 limits assumed): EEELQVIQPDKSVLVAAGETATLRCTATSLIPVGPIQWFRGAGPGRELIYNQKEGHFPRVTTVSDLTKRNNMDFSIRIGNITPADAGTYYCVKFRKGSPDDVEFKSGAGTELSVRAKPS
T7 sequence (chain, as listed by the source limits assumed): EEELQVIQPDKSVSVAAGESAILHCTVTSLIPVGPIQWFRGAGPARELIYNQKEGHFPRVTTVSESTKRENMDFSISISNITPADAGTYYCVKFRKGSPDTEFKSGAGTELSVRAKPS
T4 sequence (O00241 30-148 limits assumed): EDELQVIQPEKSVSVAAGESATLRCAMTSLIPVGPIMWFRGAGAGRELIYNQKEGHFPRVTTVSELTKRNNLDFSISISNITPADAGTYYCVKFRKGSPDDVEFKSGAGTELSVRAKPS
T10 sequence (Q9P1W8 29-147 limits assumed): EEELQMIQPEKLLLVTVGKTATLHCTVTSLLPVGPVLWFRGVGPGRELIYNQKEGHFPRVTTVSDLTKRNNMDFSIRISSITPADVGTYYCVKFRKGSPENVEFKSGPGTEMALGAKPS

B1: S65 (scFv, V domains shown)
VH: DVQLVESGGGVVRPGESLRLSCAASGFTFSSYAMSWVRQAPGKGLEWLAGISAGGSDTYYIDSVKGRFTISRDNSKNSLYLQMNSLTAEDTAVYYCARETWNHLFDYWGLGTLVTVSS
VL: ALTQPASVSANPGETVKITCSGGDYYSTYYGWYQQKSPGSAPVTVIHSDDKRPSDIPSRFSGSASGSAATLTITGVRVEDEAVYFCGAYDGRTYINTFGAGTTLTVL
notes: also called clone 65
By koff is commonly meant the rate constant with which the complex falls apart. A higher koff goes with fast dissociation. For B1, the koff was 0.000786 s⁻¹ in test [1]; 0.000147 s⁻¹ in [2]; 0.00019 s⁻¹ in [3]; 0.000154 s⁻¹ in test [4]; 0.000159 s⁻¹ in [5]; 0.000188 s⁻¹ in [6]. Besides, the koff in test [7] stood at 0.000172 s⁻¹; in test [8], 0.000607 s⁻¹; in test [9], 0.000145 s⁻¹; in test [10] it was 0.000134 s⁻¹.

B2: S22 (scFv, V domains shown)
VH: DVQLVESGGGVVRPGESLRLSCAASGFTFSSYAMSWVRQAPGKGLEWLAGISAGGSDTYYIDSVKGRFTISRRQFQEQSLSPNEPALTAEDTAVYYCARETWNHLFDYWGLGTLVTVSS
VL: ALTQPASVSANPGETVKITCSGGDYYSTYYGWYQQKSPGSAPVTVIHSDDKRPSDIPSRFSGSASGSAATLTIAGVRVEDEAVYFCGAYDGRTYINTFGAGTTLTVL
notes: also called clone 22
Consider B2, for which the koff in test [1] turned out to be 0.000736 s⁻¹; in test [2], 0.000135 s⁻¹; in [3], 0.000177 s⁻¹; in [4] it was 0.000138 s⁻¹; in [5], 0.000153 s⁻¹; in test [6], 0.000177 s⁻¹. Moreover, the koff in test [7] is 0.000146 s⁻¹; in test [8] it was 0.000583 s⁻¹; in test [9] it was 0.000121 s⁻¹; in test [10], 0.000108 s⁻¹.

B3: S24 (scFv, V domains shown)
VH: DVQLVESGGGVVRPGESLRLSCAASGFTFSSNAMSWVRQAPGKGLEWLAGISAGGSDTYYPASVKGRFTISRDNPKNTLYLQMNTLTAEDTAVYYCARETWNHLFDYWGLGTLVTVSS
VL: ALTQPASVSANPGETVKIACSGGSYYSYYYGWYQQKSPGSALVTVIYSDDKRPSGIPSRFSGSASGSTATLTITGVRAEDEAVYYCGGYDYSSYTNDFGAGTTLTVL
notes: also called clone 24
On to B3, for which the koff in test [1] was 0.00126 s⁻¹; in test [2], 0.000216 s⁻¹; in test [3], 0.000334 s⁻¹; in test [4], 0.000194 s⁻¹; in test [5] it was 0.000402 s⁻¹; in test [6], 0.000382 s⁻¹. Moreover, the koff in [7] was 0.000317 s⁻¹; in test [8], 0.00386 s⁻¹; in test [9], 0.000257 s⁻¹; in test [10] it was 0.000197 s⁻¹.

B4: S69 (scFv, V domains shown)
VH: DLQLVESGGGVVRPGESLRLSCAASGFTFSSYAMSWVRQAPGKGLEWLAGISAGGSDTYYIDSVKGRFTISRDNSKNSLYLQMNSLTAEDTAVYYCARETWNHLFDYWGLGTLVTVSS
VL: ALTQPASVSANPGETVKIICSGGDYYSTYYGWYQQKSPGSAPVTVIHSDDKRPSDIPSRFSGSASGSAATLTITGVRVEDEAVYFCGAYDGRTYINTFGAGTTLTVL
notes: also called clone 69
With B4, the koff in test [1] amounted to 0.000765 s⁻¹; in test [2], 0.000233 s⁻¹; in test [3] it was 0.000216 s⁻¹; in test [4] it was 0.000229 s⁻¹; in test [5], 0.000246 s⁻¹; in [6] it was 0.000255 s⁻¹. The koff came out at 0.000267 s⁻¹ in [7], 0.000709 s⁻¹ in test [8], 0.000205 s⁻¹ in [9] and 0.000199 s⁻¹ in test [10].

B5: S202 (scFv, V domains shown)
VH: DVQLVESGGGVVRPGESLRLSCAASGFTFSSYAMSWVRQAPGKGLEWLAGISAGGSDTYYIDSVKGRFTISRDNSKNSLYLQMNSLTAEDTAVYYCARETWNHLFDYWGLGTLVTVSS
VL: ALTQPASVSANPGETVKITCSGGGYYSTYYGWYQQRSPGSAPVTVIHSDDKRPSDIPSRFSGSASGSAATLTITGVRVEDEAVYYCAGYDGRTYLNTFGAGTTLTVL
Consider B5, for which the koff in test [1] came out at 0.00063 s⁻¹; in test [2] it was 6.86e-05 s⁻¹; in test [3], 0.00012 s⁻¹; in test [4], 0.00205 s⁻¹; in test [5], 4.58e-05 s⁻¹; in [6], 0.000113 s⁻¹. The koff in test [7] was 5.4e-05 s⁻¹; in test [8], 0.000509 s⁻¹; in test [9] it was 3.75e-05 s⁻¹; in [10] it was 4.44e-05 s⁻¹.

B6: S71 (scFv, V domains shown)
VH: DVQLVESGGGVVRPGESLRLSCAASGFTFSSYAMSWVRQAPGKGLEWLAGISAGGSDTYYIDSVKGRFTISRDNSKNSLYLQMNSLTAEDTAVYYCARETWNHLFDYWGLGTLVTVSS
VL: ALTQPASVSANPGETVKITCSGGGYYSTYYGWYQQKSPGSAPVTVIHSDDKRPSDIPSRFSGSASGSAATLTITGVRVEDEAVYYCAGYDARTYINTFGAGTTLTVL
notes: also called clone 71
Regarding B6, the off-rate constant (koff) was determined as 0.00341 s⁻¹ in test [1]; 0.000379 s⁻¹ in test [2]; 0.000313 s⁻¹ in test [3]; 0.000388 s⁻¹ in test [4]; 0.000417 s⁻¹ in test [5]; 0.000364 s⁻¹ in test [6]. In addition, the koff was 0.000403 s⁻¹ in test [7], 0.00112 s⁻¹ in test [8], 0.000335 s⁻¹ in [9] and 0.000316 s⁻¹ in test [10].

B7: S70 (scFv, V domains shown)
VH: DVQLVESGGGVVRPGESLRLSCAASGFTFSSYAMSWVRQAPGKGLEWLAGISAGGSDAYYIDSVKGRFTISRDNSKNSLYLQMNSLTAEDTAVYYCARETWNHLFDYWGLGTLVTVSS
VL: ALTQPASVSANPGETVKITCSGGDWYSTYYGWYQQKSPGSAPVTVIHSDDKRPSDIPSRFSGSASGSAATLTITGVRVEDEAVYYCAGYDGRTYINTFGAGTTLTVL
notes: also called clone 70
Consider B7, for which the koff in test [1] was found to be 0.000987 s⁻¹; in [2] it was 0.00026 s⁻¹; in test [3] it was 0.000245 s⁻¹; in [4], 0.000225 s⁻¹; in test [5], 0.00027 s⁻¹; in test [6], 0.000296 s⁻¹. Besides, the koff was determined as 0.00029 s⁻¹ in test [7], 0.000672 s⁻¹ in test [8], 0.000225 s⁻¹ in test [9] and 0.000222 s⁻¹ in [10].

B8: S21 (scFv, V domains shown)
VH: DVQLVESGGGVVRPGESLRLSCAASGFTFSSNAMSWVRQAPGKGLEWLAGISAGGSDTYYPASVKGRFTISRDNSKNTLYLQMNTLTAEDTAVYYCARETWNHLFDYWGLGTLVTVSS
VL: ALTQPASVSANPGETVKIACSGGDYYSYYYGWYQQKAPGSALVTVIYSDDKRPSDIPSRFSGSASGSTATLTITGVRAEDEAVYYCGGYDYSTYANAFGAGTTLTVL
notes: also called clone 21; scFv-Fc form of AB21
For the molecule B8, the koff is 0.000806 s⁻¹ in test [1]; 0.000195 s⁻¹ in [2]; 0.000252 s⁻¹ in [3]; 0.00019 s⁻¹ in test [4]; 0.000281 s⁻¹ in test [5]; 0.000233 s⁻¹ in test [6]. In addition, the off-rate constant (koff) in test [7] was determined as 0.000207 s⁻¹; in [8], 0.00264 s⁻¹; in test [9], 0.00018 s⁻¹; in test [10] it was 0.000184 s⁻¹.

B9: S66 (scFv, V domains shown)
VH: DVQLVESGGGVVRPGESLRLSCAASGFTFSSYAMSWVRQAPGKGLEWLAGISAGGSDTYYIDSVKGRFTISRDNPKNSLYLQMSSLTAEDTAVYYCARETWNHLFDYWGLGTLVTVSS
VL: ALTQPASVSANPGETVKITCSGGDYYSTYYAWYQQKSPGSAPVTVIHSDDKRPSDIPSRFSGSASGSAATLIITGVRVEDEAVYYCGGYDGRTYINTFGAGTTLTVL
notes: also called clone 66; scFv-Fc form of AB66
On to B9, for which the koff in test [1] was found to be 0.00102 s⁻¹; in test [2], 0.00011 s⁻¹; in [3] it was 0.000255 s⁻¹; in [4], 0.000138 s⁻¹; in [5] it was 0.000127 s⁻¹; in [6] it was 0.00025 s⁻¹. Also, the off-rate (koff) worked out at 0.000206 s⁻¹ in [7], 0.00049 s⁻¹ in test [8], 0.000118 s⁻¹ in [9] and 0.000126 s⁻¹ in [10].
